Measured values: PMC10441670

How the values were obtained:
[1] = test system: MHV68UNGΔN-Ls (murine gammaherpesvirus 68 / mouse chimera); experiment: fluorescence anisotropy; settings: N15 of strand 1 = abasic (AP) site made from U by UNG; G opposite
[2] = test system: MHV68UNG (murine gammaherpesvirus 68); experiment: fluorescence anisotropy; settings: N15 of strand 1 = abasic (AP) site made from U by UNG; G opposite

Q: For “AGAAAAGGGGAAAGNAAAGAGGAAAGGTGAGGAGGT / ACCTCCTCACCTTTCCTCTTTGCTTTCCCCTTTTCT [AP:G dsDNA (fluorescein)]”, which Kd [1] is on record?
A: 751 nM

Q: What about the Kd [2] of the same sequence?
A: 680 nM
